Patent US20240400614A1, “CLEAVABLE PEPTIDES AND METHODS OF USE THEREOF” (Bright Peak Therapeutics AG, priority 2023, published 2024)
Square brackets hold non-standard residues; d marks the D form. Ends that are not written are not given here. Tyr(3-NO2) = N[C@@H](Cc1ccc(O)c([N+](=O)[O-])c1)C(=O)O; 2Abz = Nc1ccccc1C(=O)O

Assays:
Format in all cases: biochemical
uPA = uPA (Homo sapiens, UniProt P00749); experiment: FRET peptide cleavage efficiency with uPA
MMP-7 = biological target: T1, MMP-7 (Homo sapiens, UniProt P09237); experiment: FRET peptide cleavage efficiency with MMP-7 (standard pH 7.5; also pH 6.5); conditions: for % cleavage MMP-7 t = 15 min: t = 15 min (Table 9); for % cleavage MMP-7 t = 60 min: t = 60 min (Table 9); for % cleavage MMP-7 t = 120 min: t = 120 min (Table 9)
T1 construct: purchased SIGMA CC1059
T1 sequence (P09237 95-267): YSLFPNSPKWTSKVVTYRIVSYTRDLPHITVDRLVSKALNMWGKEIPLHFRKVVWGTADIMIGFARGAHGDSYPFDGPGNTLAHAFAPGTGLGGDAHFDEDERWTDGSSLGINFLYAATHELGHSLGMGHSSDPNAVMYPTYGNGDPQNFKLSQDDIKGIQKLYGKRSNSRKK

MMP-2 = biological target: T2, MMP-2 (Homo sapiens, UniProt P08253); experiment: FRET peptide cleavage efficiency with MMP-2
T2 construct: purchased SIGMA PF023
T2 sequence (P08253 110-660): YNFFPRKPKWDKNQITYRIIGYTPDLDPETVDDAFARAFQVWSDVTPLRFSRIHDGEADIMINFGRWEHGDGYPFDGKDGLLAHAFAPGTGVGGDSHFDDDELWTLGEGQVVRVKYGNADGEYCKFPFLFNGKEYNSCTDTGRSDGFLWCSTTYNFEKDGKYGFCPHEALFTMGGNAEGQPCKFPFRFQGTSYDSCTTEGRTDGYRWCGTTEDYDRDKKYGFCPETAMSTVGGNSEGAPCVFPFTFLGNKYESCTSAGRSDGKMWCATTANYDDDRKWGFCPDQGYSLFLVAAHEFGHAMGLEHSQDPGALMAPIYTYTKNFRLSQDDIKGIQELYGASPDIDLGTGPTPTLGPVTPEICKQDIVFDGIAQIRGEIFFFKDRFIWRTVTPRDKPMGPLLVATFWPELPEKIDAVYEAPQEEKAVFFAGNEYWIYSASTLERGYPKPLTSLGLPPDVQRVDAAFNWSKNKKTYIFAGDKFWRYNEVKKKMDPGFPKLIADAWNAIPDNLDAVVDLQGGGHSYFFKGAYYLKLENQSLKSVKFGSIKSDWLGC

matriptase = biological target: T3, matriptase (Homo sapiens, UniProt Q9Y5Y6); experiment: FRET peptide cleavage efficiency with matriptase
T3 construct: purchased R&D Systems 3946-SEB
T3 sequence (Q9Y5Y6 615-855 limits assumed): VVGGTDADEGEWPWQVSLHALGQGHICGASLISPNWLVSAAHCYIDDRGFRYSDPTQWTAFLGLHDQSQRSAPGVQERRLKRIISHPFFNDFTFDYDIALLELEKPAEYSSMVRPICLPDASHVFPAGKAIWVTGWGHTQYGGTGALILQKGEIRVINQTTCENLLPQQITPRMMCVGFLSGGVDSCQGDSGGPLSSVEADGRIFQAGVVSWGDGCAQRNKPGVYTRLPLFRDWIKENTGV

MMP-9 = biological target: T4, MMP-9 (Homo sapiens, UniProt P14780); experiment: FRET peptide cleavage efficiency with MMP-9 (standard pH 7.5; also pH 6.5); conditions: for % cleavage MMP-9 t = 15 min: t = 15 min (Table 9); for % cleavage MMP-9 t = 60 min: t = 60 min (Table 9); for % cleavage MMP-9 t = 120 min: t = 120 min (Table 9)
T4 construct: purchased SIGMA PF024
T4 sequence (P14780 94-707): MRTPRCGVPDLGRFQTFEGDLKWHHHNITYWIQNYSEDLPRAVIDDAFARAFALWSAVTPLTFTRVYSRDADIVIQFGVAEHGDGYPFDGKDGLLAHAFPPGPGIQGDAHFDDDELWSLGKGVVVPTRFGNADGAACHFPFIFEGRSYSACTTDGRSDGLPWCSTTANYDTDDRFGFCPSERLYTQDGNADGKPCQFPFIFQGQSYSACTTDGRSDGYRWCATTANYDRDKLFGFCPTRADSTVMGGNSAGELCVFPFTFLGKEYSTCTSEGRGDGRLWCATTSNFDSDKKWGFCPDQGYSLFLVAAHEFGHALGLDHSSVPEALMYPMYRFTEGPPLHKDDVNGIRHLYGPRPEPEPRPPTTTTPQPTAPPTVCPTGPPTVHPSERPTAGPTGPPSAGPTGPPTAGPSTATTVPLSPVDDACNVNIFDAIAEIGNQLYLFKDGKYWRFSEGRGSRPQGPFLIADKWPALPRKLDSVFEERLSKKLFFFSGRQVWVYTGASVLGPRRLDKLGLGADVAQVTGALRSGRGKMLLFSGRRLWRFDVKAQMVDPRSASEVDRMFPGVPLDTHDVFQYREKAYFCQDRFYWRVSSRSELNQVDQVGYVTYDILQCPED

[1] = 200 uM linker, 1 ug/ml protease, 37° C., buffer A pH 8.5
[2] = t = 60 min, 200 uM linker, 1 ug/ml protease, 37° C., buffer A pH 8.5
[3] = t = 120 min, 200 uM linker, 1 ug/ml protease, 37° C., buffer A pH 8.5
[4] = t = 15 min, 200 uM linker, 1 ug/ml protease, 37° C., buffer C pH 7.5
[5] = t = 60 min, 200 uM linker, 1 ug/ml protease, 37° C., buffer C pH 7.5
[6] = t = 120 min, 200 uM linker, 1 ug/ml protease, 37° C., buffer C pH 7.5
[7] = t = 15 min, 200 uM linker, 1 ug/ml protease, 37° C., buffer B pH 9.0
[8] = t = 60 min, 200 uM linker, 1 ug/ml protease, 37° C., buffer B pH 9.0
[9] = 200 uM linker, 1 ug/ml protease, 37° C., buffer B pH 9.0

Sequence | % cleavage uPA t = 15 min (uPA; [1]) | % cleavage uPA t = 60 min (uPA; [2]) | % cleavage uPA t = 120 min (uPA; [3]) | % cleavage MMP-7 t = 15 min (MMP-7) | % cleavage MMP-7 t = 60 min (MMP-7) | % cleavage MMP-7 t = 120 min (MMP-7) | % cleavage MMP-2 t = 15 min (MMP-2; t = 15 min (Table 9)) | % cleavage MMP-2 t = 15 min (MMP-2; [4]) | % cleavage MMP-2 t = 60 min (MMP-2; t = 60 min (Table 9)) | % cleavage MMP-2 t = 60 min (MMP-2; [5]) | % cleavage MMP-2 t = 120 min (MMP-2; t = 120 min (Table 9)) | % cleavage MMP-2 t = 120 min (MMP-2; [6]) | % cleavage Matriptase t = 15 min (matriptase; [7]) | % cleavage Matriptase t = 60 min (matriptase; [8]) | % cleavage Matriptase t = 120 min (matriptase; [9]) | % cleavage MMP-9 t = 15 min (MMP-9) | % cleavage MMP-9 t = 60 min (MMP-9) | % cleavage MMP-9 t = 120 min (MMP-9) | % cleavage uPA t = 60 min (uPA; pH 6.5, t = 60 min (Table 7)) | % cleavage uPA t = 120 min (uPA; pH 6.5, t = 120 min (Table 7)) | further results
RGRRVANYFGKL ([2Abz]RGRRVANYFGKL[Tyr(3-NO2)]-NH2) [LNK055] | 2% | 4% | 8% | 0% | 0% | 0% | 85% | 85% | 100% | 100% | 100% | 100% | 67% | 100% | 100% | 35% | 81% | 100% |  |  | 
SGRVAGLVG ([2Abz]SGRVAGLVG[Tyr(3-NO2)]-NH2) [LNK016] | 2% | 6% | 12% | 11% | 43% | 70% | 72% | 85% | 100% | 99% | 100% | 99% | 22% | 70% | 92% | 10% | 43% | 67% | 0% | 0% | % cleavage uPA t = 60 min (uPA; pH 7.5, t = 60 min (Table 7)): 4%; % cleavage uPA t = 120 min (uPA; pH 7.5, t = 120 min (Table 7)): 10%; % cleavage MMP-2 t = 15 min (MMP-2; pH 6.5, t = 15 min (Table 7)): 84%; % cleavage MMP-2 t = 60 min (MMP-2; pH 6.5, t = 60 min (Table 7)): 100%; % cleavage MMP-2 t = 15 min (MMP-2; pH 7.5, t = 15 min (Table 7)): 87%; % cleavage MMP-2 t = 60 min (MMP-2; pH 7.5, t = 60 min (Table 7)): 100%; % cleavage Matriptase t = 15 min (matriptase; pH 6.5, t = 15 min (Table 7)): 8%; % cleavage Matriptase t = 60 min (matriptase; pH 6.5, t = 60 min (Table 7)): 24%; % cleavage Matriptase t = 15 min (matriptase; pH 7.5, t = 15 min (Table 7)): 17%; % cleavage Matriptase t = 60 min (matriptase; pH 7.5, t = 60 min (Table 7)): 54%
SGRVANLVG (not fully specified (N-terminus, C-terminus)) [LNK017] | 1% | 6% | 12% | 62% | 96% | 100% | 89% | 90% | 97% | 99% | 100% | 99% | 29% | 81% | 96% | 43% | 94% | 100% | 0% | 0% | % cleavage uPA t = 60 min (uPA; pH 7.5, t = 60 min (Table 7)): 7%; % cleavage uPA t = 120 min (uPA; pH 7.5, t = 120 min (Table 7)): 13%; % cleavage MMP-2 t = 15 min (MMP-2; pH 6.5, t = 15 min (Table 7)): 93%; % cleavage MMP-2 t = 60 min (MMP-2; pH 6.5, t = 60 min (Table 7)): 100%; % cleavage MMP-2 t = 15 min (MMP-2; pH 7.5, t = 15 min (Table 7)): 37%; % cleavage MMP-2 t = 60 min (MMP-2; pH 7.5, t = 60 min (Table 7)): 100%; % cleavage Matriptase t = 15 min (matriptase; pH 6.5, t = 15 min (Table 7)): 5%; % cleavage Matriptase t = 60 min (matriptase; pH 6.5, t = 60 min (Table 7)): 26%; % cleavage Matriptase t = 15 min (matriptase; pH 7.5, t = 15 min (Table 7)): 25%; % cleavage Matriptase t = 60 min (matriptase; pH 7.5, t = 60 min (Table 7)): 68%
RGRRVANPLGYFGKL ([2Abz]RGRRVANPLGYFGKL[Tyr(3-NO2)]-NH2) [LNK058] | 1% | 5% | 10% | 0% | 0% | 0% | 68% | 68% | 100% | 100% | 100% | 100% | 88% | 100% | 100% | 31% | 97% | 100% |  |  | 
